Assay results as given in publication doi:10.1101/2024.03.25.586599 (bioRxiv, 2024).
Values belong to the binder of their own block, whether it stands above or below them. Ends that are not written are not given here. * marks the point of attachment. Biotin = O=C1N[C@H]2[C@H](CS[C@H]2CCCCC(=O)*)N1

Experiments:
Experiment in all cases: SPR
[1] = target: T1, N-terminally biotinylated synthetic FLAG peptide, six-residue truncated version (DYKDDD) (synthetic construct)
T1 chain: Biotin-DYKDDD

[2] = target: T2, N-terminally biotinylated synthetic FLAG peptide, 5-residue variant (DYKDD) (synthetic construct)
T2 chain: Biotin-DYKDD

[3] = target: T3, N-terminally biotinylated synthetic FLAG peptide, wildtype (DYKDDDDK) (synthetic construct, not fully specified (N-terminus))
T3 chain: DYKDDDDK

[4] = target: T4, N-terminally biotinylated synthetic FLAG peptide, 4-residue variant (DYKD) (synthetic construct)
T4 chain: Biotin-DYKD

[5] = target: T5, N-terminally biotinylated synthetic FLAG peptide, Asp5Glu (DYKDEDDK) (synthetic construct, point mutant, not fully specified (N-terminus))
T5 chain: DYKDEDDK

[6] = target: T6, N-terminally biotinylated synthetic FLAG peptide, truncated, Asp5Glu (DYKDED) (synthetic construct, point mutant)
T6 chain: Biotin-DYKDED

[7] = target: T3, N-terminally biotinylated synthetic …
[8] = target: T5, N-terminally biotinylated synthetic …
[9] = target: T7, N-terminally biotinylated synthetic FLAG peptide truncated by one C-terminal residue (DYKDDDD) (synthetic construct)
T7 chain: Biotin-DYKDDDD

[10] = target: T1, N-terminally biotinylated synthetic …
[11] = target: T2, N-terminally biotinylated synthetic …
[12] = target: T7, N-terminally biotinylated synthetic …
[13] = target: T4, N-terminally biotinylated synthetic …
[14] = target: T6, N-terminally biotinylated synthetic …

- KD, first site (two-site binding model) [1]: 9.72 ± 2.6 nM
- KD, first site (two-site binding model) [2]: 154 ± 100 nM
- KD, first site (two-site binding model) [3]: 2.95 ± 0.31 nM
- KD, first site (two-site binding model) [4]: 52.9 ± 22.1 nM
- KD, first site (two-site binding model) [5]: 2.23 ± 0.25 nM
- KD, first site (two-site binding model) [6]: 10.2 ± 0.48 nM
B1: anti-FLAG M2 IgG (wildtype, recombinant) (antibody, V domains shown)
VH: QVQLQQSAAELARPGASVKMSCKASGYSFTTYTIHWVKQRPGQGLEWIGYINPSSGYAAYNQNFKDETTLTADPSSSTAYMELNSLTSEDSAVYYCAREKFYGYDYWGQGATLTVSS
VL: DVLMTQIPLSLPVSLGDQASISCRSSQSIVHRNGNTYLEWYLLKPGQSPKLLIYKVSNRFSGVPDRFSGSGSGTDFTLKISRVEAEDLGVYYCFQGSHVPYTFGGGTKLEIR

- Kd [7]: 1910 ± 240 nM
- Kd [8]: 1780 ± 130 nM
B2: anti-FLAG M2 Fab (wildtype, recombinant) (Fab, V domains shown)
VH: QVQLQQSAAELARPGASVKMSCKASGYSFTTYTIHWVKQRPGQGLEWIGYINPSSGYAAYNQNFKDETTLTADPSSSTAYMELNSLTSEDSAVYYCAREKFYGYDYWGQGATLTVSS
VL: DVLMTQIPLSLPVSLGDQASISCRSSQSIVHRNGNTYLEWYLLKPGQSPKLLIYKVSNRFSGVPDRFSGSGSGTDFTLKISRVEAEDLGVYYCFQGSHVPYTFGGGTKLEIR

- fold drop in affinity against the wildtype IgG [1]: ~20 fold
- fold drop in affinity against the wildtype IgG [2]: ~20 fold
- fold drop in affinity against the wildtype IgG [3]: ~20 fold
- fold drop in affinity against the wildtype IgG [9]: ~20 fold
- fold drop in affinity against the wildtype IgG [4]: ~20 fold
- fold drop in affinity against the wildtype IgG [5]: ~20 fold
- fold drop in affinity against the wildtype IgG [6]: ~20 fold
B3: anti-FLAG M2 IgG, heavy chain K100R (antibody, V domains shown)
VH: QVQLQQSAAELARPGASVKMSCKASGYSFTTYTIHWVKQRPGQGLEWIGYINPSSGYAAYNQNFKDETTLTADPSSSTAYMELNSLTSEDSAVYYCARERFYGYDYWGQGATLTVSS
VL: DVLMTQIPLSLPVSLGDQASISCRSSQSIVHRNGNTYLEWYLLKPGQSPKLLIYKVSNRFSGVPDRFSGSGSGTDFTLKISRVEAEDLGVYYCFQGSHVPYTFGGGTKLEIR

- fold drop in affinity against the wildtype Fab [10]: ~20 fold
- fold drop in affinity against the wildtype Fab [11]: ~20 fold
- fold drop in affinity against the wildtype Fab [7]: ~20 fold
- fold drop in affinity against the wildtype Fab [12]: ~20 fold
- fold drop in affinity against the wildtype Fab [13]: ~20 fold
- fold drop in affinity against the wildtype Fab [8]: ~20 fold
- fold drop in affinity against the wildtype Fab [14]: ~20 fold
B4: anti-FLAG M2 Fab, heavy chain K100R (Fab, V domains shown)
VH: QVQLQQSAAELARPGASVKMSCKASGYSFTTYTIHWVKQRPGQGLEWIGYINPSSGYAAYNQNFKDETTLTADPSSSTAYMELNSLTSEDSAVYYCARERFYGYDYWGQGATLTVSS
VL: DVLMTQIPLSLPVSLGDQASISCRSSQSIVHRNGNTYLEWYLLKPGQSPKLLIYKVSNRFSGVPDRFSGSGSGTDFTLKISRVEAEDLGVYYCFQGSHVPYTFGGGTKLEIR
